B1: Mothers against decapentaplegic homolog 4 (Homo sapiens), Q13485 (parent)
chain: MDNMSITNTPTSNDACLSIVHSLMCHRQGGESETFAKRAIESLVKKLKEKKDELDSLITAITTNGAHPSKCVTIQRTLDGRLQVAGRKGFPHVIYARLWRWPDLHKNELKHVKYCQYAFDLKCDSVCVNPYHYERVVSPGIDLSGLTLQSNAPSSMMVKDEYVHDFEGQPSLSTEGHSIQTIQHPPSNRASTETYSTPALLAPSESNATSTANFPNIPVASTSQPASILGGSHSEGLLQIASGPQPGQQQNGFTGQPATYHHNSTTTWTGSRTAPYTPNLPHHQNGHLQHHPPMPPHPGHYWPVHNELAFQPPISNHPAPEYWCSIAYFEMDVQVGETFKVPSSCPIVTVDGYVDPSGGDRFCLGQLSNVHRTEAIERARLHIGKGVQLECKGEGDVWVRCLSDHAVFVQSYYLDREAGRAPGDAVHKIYPSAYIKVFDLRQCHRQMQQQAATAQAAAAAQAAAVAGNIPGPGSVGGIAPAISLSAAAGIGVDDLRRLCILRMSFVKGWGPDYPRQSIKETPCWIEIHLHRALQLLDEVLHTMPIADPQPLD
partner: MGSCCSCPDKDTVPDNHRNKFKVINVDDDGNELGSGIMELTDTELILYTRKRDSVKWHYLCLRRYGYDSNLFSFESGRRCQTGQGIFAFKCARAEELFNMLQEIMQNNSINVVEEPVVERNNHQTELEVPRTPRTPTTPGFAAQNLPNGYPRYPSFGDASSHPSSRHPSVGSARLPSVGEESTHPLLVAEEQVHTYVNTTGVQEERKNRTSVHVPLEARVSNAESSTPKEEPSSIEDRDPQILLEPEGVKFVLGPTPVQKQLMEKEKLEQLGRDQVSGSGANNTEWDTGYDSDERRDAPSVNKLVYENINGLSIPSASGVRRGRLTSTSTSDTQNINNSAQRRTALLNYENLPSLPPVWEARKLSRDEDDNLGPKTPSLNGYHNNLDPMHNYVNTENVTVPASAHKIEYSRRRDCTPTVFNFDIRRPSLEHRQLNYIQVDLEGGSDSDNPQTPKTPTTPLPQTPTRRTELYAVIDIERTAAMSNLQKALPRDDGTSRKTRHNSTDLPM
B2: Mothers against decapentaplegic homolog 4 (Homo sapiens), Q13485 (parent)
chain: B1 chain
partner: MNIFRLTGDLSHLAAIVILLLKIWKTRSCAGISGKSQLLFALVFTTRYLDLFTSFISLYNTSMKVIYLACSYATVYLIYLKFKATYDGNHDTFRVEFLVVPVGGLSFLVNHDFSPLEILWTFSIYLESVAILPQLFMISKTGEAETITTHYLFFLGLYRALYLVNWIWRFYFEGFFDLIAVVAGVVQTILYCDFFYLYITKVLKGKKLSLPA
B3: Mothers against decapentaplegic homolog 4 (Homo sapiens), Q13485 (parent)
chain: B1 chain
partner: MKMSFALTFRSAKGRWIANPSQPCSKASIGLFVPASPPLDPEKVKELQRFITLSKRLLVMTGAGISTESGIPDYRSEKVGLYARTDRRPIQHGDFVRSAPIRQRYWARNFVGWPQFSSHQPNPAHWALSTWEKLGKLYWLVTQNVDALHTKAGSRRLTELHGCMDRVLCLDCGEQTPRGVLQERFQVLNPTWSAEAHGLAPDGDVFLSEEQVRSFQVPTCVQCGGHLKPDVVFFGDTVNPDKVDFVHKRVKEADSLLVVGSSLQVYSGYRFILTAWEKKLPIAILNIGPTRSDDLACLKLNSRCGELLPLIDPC
B4: Mothers against decapentaplegic homolog 4 (Homo sapiens), Q13485 (parent)
chain: B1 chain
partner: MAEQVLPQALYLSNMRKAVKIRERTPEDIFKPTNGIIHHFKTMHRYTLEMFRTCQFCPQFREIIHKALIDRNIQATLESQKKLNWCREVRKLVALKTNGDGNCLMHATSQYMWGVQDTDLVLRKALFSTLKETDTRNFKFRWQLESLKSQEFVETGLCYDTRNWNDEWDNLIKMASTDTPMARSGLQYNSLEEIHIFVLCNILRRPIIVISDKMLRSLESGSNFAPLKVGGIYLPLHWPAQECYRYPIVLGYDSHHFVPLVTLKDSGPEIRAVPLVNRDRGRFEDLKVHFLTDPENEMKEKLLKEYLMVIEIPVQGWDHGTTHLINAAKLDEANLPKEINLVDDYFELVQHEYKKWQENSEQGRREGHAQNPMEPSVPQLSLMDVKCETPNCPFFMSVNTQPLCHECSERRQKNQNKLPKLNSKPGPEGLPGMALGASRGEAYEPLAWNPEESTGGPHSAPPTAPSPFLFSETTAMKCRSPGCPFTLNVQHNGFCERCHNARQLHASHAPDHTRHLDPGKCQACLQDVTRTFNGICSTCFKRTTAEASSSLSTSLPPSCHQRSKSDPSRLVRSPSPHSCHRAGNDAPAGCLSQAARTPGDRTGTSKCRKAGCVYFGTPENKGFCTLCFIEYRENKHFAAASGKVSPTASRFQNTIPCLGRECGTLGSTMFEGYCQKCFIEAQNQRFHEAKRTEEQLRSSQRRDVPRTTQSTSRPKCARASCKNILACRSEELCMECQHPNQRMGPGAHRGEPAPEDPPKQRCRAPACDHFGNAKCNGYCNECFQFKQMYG
B5: Mothers against decapentaplegic homolog 4 (Homo sapiens), Q13485 (parent)
chain: B1 chain
partner: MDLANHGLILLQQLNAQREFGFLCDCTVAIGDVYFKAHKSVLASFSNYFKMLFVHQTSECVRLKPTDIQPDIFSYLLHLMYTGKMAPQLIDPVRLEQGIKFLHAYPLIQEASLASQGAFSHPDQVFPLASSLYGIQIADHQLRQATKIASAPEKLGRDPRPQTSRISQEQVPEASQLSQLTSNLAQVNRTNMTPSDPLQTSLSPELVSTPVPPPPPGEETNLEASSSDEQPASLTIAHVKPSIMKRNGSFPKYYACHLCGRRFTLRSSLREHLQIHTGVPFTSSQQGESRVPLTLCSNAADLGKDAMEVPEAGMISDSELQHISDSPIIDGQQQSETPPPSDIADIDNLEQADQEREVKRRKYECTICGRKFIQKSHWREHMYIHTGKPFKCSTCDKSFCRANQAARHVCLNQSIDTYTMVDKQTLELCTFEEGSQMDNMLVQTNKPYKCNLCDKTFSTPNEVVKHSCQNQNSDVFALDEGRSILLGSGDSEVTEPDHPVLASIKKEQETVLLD
B6: Mothers against decapentaplegic homolog 4 (Homo sapiens), Q13485 (parent)
chain: B1 chain
partner: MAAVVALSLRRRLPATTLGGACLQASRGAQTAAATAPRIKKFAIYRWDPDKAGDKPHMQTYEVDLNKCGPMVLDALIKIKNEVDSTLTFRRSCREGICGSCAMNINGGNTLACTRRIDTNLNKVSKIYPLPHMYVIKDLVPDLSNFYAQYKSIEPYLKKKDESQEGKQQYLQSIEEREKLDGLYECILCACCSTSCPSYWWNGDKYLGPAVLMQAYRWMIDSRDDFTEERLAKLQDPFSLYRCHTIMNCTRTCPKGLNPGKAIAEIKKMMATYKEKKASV

Variants of: B1
Conditions: with frs2_human FRS2, Q8WU20
With R361H the “effect of a mutation on the interaction” value was “with no effect”.

Variants of: B2
Conditions: with erd22_human KDELR2, P33947
In the case of R361H, the “effect of a mutation on the interaction” value is reported as “with no effect”.

Variants of: B2
Conditions: with erd22_human KDELR2, P33947
Remark: another data set of the same source
For R361C, the “effect of a mutation on the interaction” value was “with no effect”.

Variants of: B2
Conditions: with erd22_human KDELR2, P33947
Remark: another data set of the same source
G386D was tested, and the “effect of a mutation on the interaction” value was “with no effect”.

Variants of: B3
Conditions: with sir4_human SIRT4, Q9Y6E7
G386D was tested, and the “effect of a mutation on the interaction” value was “with no effect”.

Variants of: B4
Conditions: with tnap3_human TNFAIP3, P21580
For G386D, the “effect of a mutation on the interaction” value was “with no effect”.

Variants of: B5
Conditions: with zbtb2_human ZBTB2, Q8N680
For R361H, the “effect of a mutation on the interaction” value was “with no effect”.

Variants of: B6
Conditions: with sdhb_human SDHB
With G386D the “effect of a mutation on the interaction” value was “with no effect”.

Variants of: B6
Conditions: with sdhb_human SDHB
Remark: another data set of the same source
With G386D the “effect of a mutation on the interaction” value was “increasing interaction strength”.
